system: rituximab (MabThera, lot N7075B10); assay: SAW; settings: 20 mM Tris-HCl pH 7.6, 100 mM NaCl, 2 mM MgCl2, 5 mM KCl, 1 mM CaCl2, 0.02% Tween 20; SAW at 22 C (protein A chip-captured rituximab); ELASA at room …

| Sequence | Kd [µM] |
| --- | --- |
| CGGCGGGGGGAGGATTGTGGTCTGCTCATGGCTGCCGTTT [RA1] | 0.683 |
| CGTGGGTGGGGATTGTGGTTTGGCTGATGGGGTGCTGGTT [RA6] | 0.887 |
| GGGGGTGAGGATTGTGGTTTGGCTTATTGGTTTGCTGGTG [RA3] | 0.713 |
| TATACTGGGCCGTGCGTGACTTTTCCGTGCTGCATGAGAG [RA4] | 0.354 |
| TGGGGGTAGGATTGTGGTTGGCTTTAATTGCTTTGGTGGT [RA2] | 0.394 |

— publication PMC6358617
